Test results taken from the supplement of paper PMC6757056.
± gives the standard deviation of the averaged measurements.

B1: library; a variant is named by its letters at N, in order (parent)
chain: GCUGUCACCGGUGCUUGGUACGUUAUAUUCAGCCGGUCUGAUGAGUCUNNNNNNAGACGAAACAGC

Key:
(6R,S)-folinic acid [1] = variants of: B1; test: normalized RNA/DNA level without ligand (relative to sTRSVctl = 100) (log10 (% of sTRSVctl)); HEK293T overexpressing SLC46A1; higher = less ribozyme self-cleavage, higher mRNA level; details: without (6R,S)-folinic acid; ligand present: no
In short: (§1)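 Total RNA, extracted with EDTA 72 h after HEK293T cells were transfected with 4 µg per 6-well well of reporter-linked ribozyme switch library plasmids, was reverse-transcribed, amplified, barcoded and sequenced. Ligand, if used, was added 1 h before transfection. RNA level was derived from RNA reads divided by DNA reads and normalized to a spiked-in non-cleaving sequence or to the top sequences. This was multiplied by 100 and log10-transformed, with the top set of 25 sequences and a ≥100 DNA read minimum.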

(6R,S)-folinic acid [2] = variants of: B1; test: normalized RNA/DNA level with ligand (relative to sTRSVctl = 100) (log10 (% of sTRSVctl)); HEK293T overexpressing SLC46A1; ligand concentration (+) RNA-Seq: 6 mM; higher = less ribozyme self-cleavage, higher mRNA level; details: with (6R,S)-folinic acid; ligand present: yes
In short: as §1

AUCGCA was tested, and the “normalized RNA/DNA level without ligand (log10)” value ((6R,S)-folinic acid [1]) was 2.01 ± 0.024 and the “normalized RNA/DNA level with ligand (log10)” value ((6R,S)-folinic acid [2]) was 2 ± 0.032.

In the case of AUCGCC, the “normalized RNA/DNA level without ligand (log10)” value ((6R,S)-folinic acid [1]) is reported as 2.041 ± 0.014 and the “normalized RNA/DNA level with ligand (log10)” value ((6R,S)-folinic acid [2]) is reported as 2 ± 0.053.

For AUCGCG, the “normalized RNA/DNA level without ligand (log10)” value ((6R,S)-folinic acid [1]) was 1.926 ± 0.013 and the “normalized RNA/DNA level with ligand (log10)” value ((6R,S)-folinic acid [2]) was 2.02 ± 0.019.

For CUAGAA, the “normalized RNA/DNA level without ligand (log10)” value ((6R,S)-folinic acid [1]) was 1.992 ± 0.016 and the “normalized RNA/DNA level with ligand (log10)” value ((6R,S)-folinic acid [2]) was 2.018 ± 0.016.

CUAGAG was tested, and the “normalized RNA/DNA level without ligand (log10)” value ((6R,S)-folinic acid [1]) was 1.92 ± 0.035 and the “normalized RNA/DNA level with ligand (log10)” value ((6R,S)-folinic acid [2]) was 2.02 ± 0.042.

For CUAGAC, the “normalized RNA/DNA level without ligand (log10)” value ((6R,S)-folinic acid [1]) was 1.98 ± 0.017 and the “normalized RNA/DNA level with ligand (log10)” value ((6R,S)-folinic acid [2]) was 1.986 ± 0.015.

For UUCAAC, the “normalized RNA/DNA level without ligand (log10)” value ((6R,S)-folinic acid [1]) was 2.026 ± 0.015 and the “normalized RNA/DNA level with ligand (log10)” value ((6R,S)-folinic acid [2]) was 2.02 ± 0.046.

UUAGAU was tested, and the “normalized RNA/DNA level without ligand (log10)” value ((6R,S)-folinic acid [1]) was 1.946 ± 0.012 and the “normalized RNA/DNA level with ligand (log10)” value ((6R,S)-folinic acid [2]) was 1.99 ± 0.021.

UUAGAC was tested, and the “normalized RNA/DNA level without ligand (log10)” value ((6R,S)-folinic acid [1]) was 2 ± 0.01 and the “normalized RNA/DNA level with ligand (log10)” value ((6R,S)-folinic acid [2]) was 2.01 ± 0.041.

In the case of AUAUGC, the “normalized RNA/DNA level without ligand (log10)” value ((6R,S)-folinic acid [1]) is reported as 1.9727 ± 0.0008 and the “normalized RNA/DNA level with ligand (log10)” value ((6R,S)-folinic acid [2]) is reported as 1.99 ± 0.046.

For UUCGUA, the “normalized RNA/DNA level without ligand (log10)” value ((6R,S)-folinic acid [1]) was 1.96 ± 0.025 and the “normalized RNA/DNA level with ligand (log10)” value ((6R,S)-folinic acid [2]) was 1.97 ± 0.02.

For UUCGUC, the “normalized RNA/DNA level without ligand (log10)” value ((6R,S)-folinic acid [1]) was 2.1 ± 0.024 and the “normalized RNA/DNA level with ligand (log10)” value ((6R,S)-folinic acid [2]) was 2.06 ± 0.068.

For UUCGUG, the “normalized RNA/DNA level without ligand (log10)” value ((6R,S)-folinic acid [1]) was 1.81 ± 0.027 and the “normalized RNA/DNA level with ligand (log10)” value ((6R,S)-folinic acid [2]) was 1.99 ± 0.067.

GUCGCG was tested, and the “normalized RNA/DNA level without ligand (log10)” value ((6R,S)-folinic acid [1]) was 1.96 ± 0.026 and the “normalized RNA/DNA level with ligand (log10)” value ((6R,S)-folinic acid [2]) was 1.996 ± 0.0077.

For GUCGCU, the “normalized RNA/DNA level without ligand (log10)” value ((6R,S)-folinic acid [1]) was 2.048 ± 0.0053 and the “normalized RNA/DNA level with ligand (log10)” value ((6R,S)-folinic acid [2]) was 2.002 ± 0.02.

For AUAGAA, the “normalized RNA/DNA level without ligand (log10)” value ((6R,S)-folinic acid [1]) was 1.937 ± 0.0051 and the “normalized RNA/DNA level with ligand (log10)” value ((6R,S)-folinic acid [2]) was 1.98 ± 0.028.

UUCGAU was tested, and the “normalized RNA/DNA level without ligand (log10)” value ((6R,S)-folinic acid [1]) was 1.954 ± 0.0023 and the “normalized RNA/DNA level with ligand (log10)” value ((6R,S)-folinic acid [2]) was 2.02 ± 0.033.

UUCGAC was tested, and the “normalized RNA/DNA level without ligand (log10)” value ((6R,S)-folinic acid [1]) was 1.994 ± 0.0022 and the “normalized RNA/DNA level with ligand (log10)” value ((6R,S)-folinic acid [2]) was 2.02 ± 0.037.

In the case of UUCGAA, the “normalized RNA/DNA level without ligand (log10)” value ((6R,S)-folinic acid [1]) is reported as 1.947 ± 0.018 and the “normalized RNA/DNA level with ligand (log10)” value ((6R,S)-folinic acid [2]) is reported as 2 ± 0.027.

For UUCAGA, the “normalized RNA/DNA level without ligand (log10)” value ((6R,S)-folinic acid [1]) was 1.975 ± 0.011 and the “normalized RNA/DNA level with ligand (log10)” value ((6R,S)-folinic acid [2]) was 2 ± 0.021.

For UUCAGU, the “normalized RNA/DNA level without ligand (log10)” value ((6R,S)-folinic acid [1]) was 1.9849 ± 0.0019 and the “normalized RNA/DNA level with ligand (log10)” value ((6R,S)-folinic acid [2]) was 2.01 ± 0.043.

UUCAGC was tested, and the “normalized RNA/DNA level without ligand (log10)” value ((6R,S)-folinic acid [1]) was 2.063 ± 0.016 and the “normalized RNA/DNA level with ligand (log10)” value ((6R,S)-folinic acid [2]) was 2.048 ± 0.014.

In the case of GUCCUU, the “normalized RNA/DNA level without ligand (log10)” value ((6R,S)-folinic acid [1]) is reported as 2.005 ± 0.01 and the “normalized RNA/DNA level with ligand (log10)” value ((6R,S)-folinic acid [2]) is reported as 2.008 ± 0.019.

GUCCUA was tested, and the “normalized RNA/DNA level without ligand (log10)” value ((6R,S)-folinic acid [1]) was 1.994 ± 0.015 and the “normalized RNA/DNA level with ligand (log10)” value ((6R,S)-folinic acid [2]) was 2.02 ± 0.043.

GUCCUG was tested, and the “normalized RNA/DNA level without ligand (log10)” value ((6R,S)-folinic acid [1]) was 2.02 ± 0.034 and the “normalized RNA/DNA level with ligand (log10)” value ((6R,S)-folinic acid [2]) was 2.01 ± 0.021.

In the case of GUCCUC, the “normalized RNA/DNA level without ligand (log10)” value ((6R,S)-folinic acid [1]) is reported as 2.024 ± 0.02 and the “normalized RNA/DNA level with ligand (log10)” value ((6R,S)-folinic acid [2]) is reported as 2.05 ± 0.048.

For AUCAGC, the “normalized RNA/DNA level without ligand (log10)” value ((6R,S)-folinic acid [1]) was 2.065 ± 0.016 and the “normalized RNA/DNA level with ligand (log10)” value ((6R,S)-folinic acid [2]) was 2.02 ± 0.031.

For AUCAGG, the “normalized RNA/DNA level without ligand (log10)” value ((6R,S)-folinic acid [1]) was 1.96 ± 0.023 and the “normalized RNA/DNA level with ligand (log10)” value ((6R,S)-folinic acid [2]) was 2.04 ± 0.041.

In the case of AUCAGA, the “normalized RNA/DNA level without ligand (log10)” value ((6R,S)-folinic acid [1]) is reported as 2.047 ± 0.0058 and the “normalized RNA/DNA level with ligand (log10)” value ((6R,S)-folinic acid [2]) is reported as 2.04 ± 0.031.
